These results are taken from paper PMC5120207, “An archaeal ADP-dependent serine kinase involved in cysteine biosynthesis and serine metabolism” (Nature Communications, 2016).

Substrate in series [1]: N[C@@H](CO)C(=O)O
Put plainly: purified protein. The conditions noted are these: ADP co-substrate, MgCl2, 50 mM Tris-HCl pH 7.5, 85 °C (standard assay; 20 mM each ADP and MgCl2).

Substrate in series [2]: Nc1ncnc2c1ncn2[C@@H]1O[C@H](COP(=O)(O)OP(=O)(O)O)[C@@H](O)[C@H]1O
The experiment in a line: HPLC of AMP formed from ADP. It is filed as biochemical, Thermococcus kodakarensis. The conditions noted are these: L-serine co-substrate (50 mM in standard assay), MgCl2, 50 mM Tris-HCl pH 7.5, 85 °C.

B1: TK0378 protein; ADP-dependent Ser kinase (SerK; Tk-SerK) (Thermococcus kodakarensis KOD1) (protein)
chain: MGVEKVPKYDIPTKKVDYVFIELDKMKPHEQLVQKELEAFIESVTGSGIFWKPMLLAKVPGEDMYLIVDGHHRWAGLQKLGAKRAPSVILDYFSDDVKVYTWYPAFKGDLNEVVERLKKEGLEVIEDPEAEEKAERGEIAFALVGEKSFAIPGGLEEQKKVSKVLDEMSVEGKIELIYYGLKEDAREDMAKGEIDYVFIRKAPTKEEVMELVKRGEVYSPKTTRHVLPFNPDKIDVKLEELF
notes: full coding region in pET21a(+) (NdeI/EcoRI), no tag mentioned; E. coli BL21-CodonPlus(DE3)-RIL; heat treatment, Resource Q, Superdex 200
For the protein B1, in series [1], the Km turned out to be 5.1 ± 0.5 mM and the kcat was determined as 218 ± 5 s⁻¹. Moreover, in series [2], the Km is 2.4 ± 0.5 mM and the kcat worked out at 204 ± 12 s⁻¹.
